{"source": "patent US20250186594A1", "key": {"[1]": {"molecular_target": "Native IL-18 wild-type (SEQ ID NO: 1, native sequence) (human) (UniProt Q14116)", "sequence (Q14116 37-193)": "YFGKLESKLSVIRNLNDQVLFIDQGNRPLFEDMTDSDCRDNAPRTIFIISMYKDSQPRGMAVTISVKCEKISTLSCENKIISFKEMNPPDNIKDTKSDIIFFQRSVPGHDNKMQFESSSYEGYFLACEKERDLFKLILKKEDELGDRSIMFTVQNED"}, "[2]": {"molecular_target": "IL-18 variant SEQ ID NO: 205 (V11I, C38A, K53A, T63A, C76A, C127A) (human) (UniProt Q14116)", "sequence (Q14116 37-193 V47I/C74A/K89A/T99A/C112A/C163A)": "as the sequence (Q14116 37-193) above, with V11I, C38A, K53A, T63A, C76A, C127A counted along it", "experiment": "cell-based or functional assay"}, "[3]": {"molecular_target": "IL-18 variant SEQ ID NO: 11 (E6K, V11I, C38A, K53A, C76A, C127A) (human) (UniProt Q14116)", "sequence (Q14116 other isoform, or with tags, fused parts or gaps V11I C38A K53A C76A C127A V11I C38A K53A C76A C127A)": "as the sequence (Q14116 37-193) above, with E6K, V11I, C38A, K53A, C76A, C127A counted along it", "experiment": "cell-based or functional assay"}, "[4]": {"molecular_target": "IL-18 variant SEQ ID NO: 228 (V11I, C38A, C76A, S105I, C127A) (human) (UniProt Q14116)", "sequence (Q14116 37-193 V47I/C74A/C112A/S141I/C163A)": "as the sequence (Q14116 37-193) above, with V11I, C38A, C76A, S105I, C127A counted along it", "experiment": "cell-based or functional assay"}, "[5]": {"molecular_target": "IL-18 variant SEQ ID NO: 5 (E6K, V11I, C38A, K53A, T63A, C68A, C76A, M86C, C127A) (human) (UniProt Q14116)", "sequence (Q14116 other isoform, or with tags, fused parts or gaps with the stated changes)": "as the sequence (Q14116 37-193) above, with E6K, V11I, C38A, K53A, T63A, C68A, C76A, M86C, C127A counted along it", "experiment": "cell-based or functional assay"}, "[6]": {"molecular_target": "IL-18 variant SEQ ID NO: 57 (E6K, C38S, K53A) (human) (UniProt Q14116)", "sequence (Q14116 other isoform, or with tags, fused parts or gaps C38S K53A C38S K53A)": "as the sequence (Q14116 37-193) above, with E6K, C38S, K53A counted along it", "experiment": "cell-based or functional assay"}, "[7]": {"molecular_target": "IL-18 variant SEQ ID NO: 213 (V11I, S36A, C38A, K53A, C76A, C127A) (human) (UniProt Q14116)", "sequence (Q14116 37-193 V47I/S72A/C74A/K89A/C112A/C163A)": "as the sequence (Q14116 37-193) above, with V11I, S36A, C38A, K53A, C76A, C127A counted along it", "experiment": "cell-based or functional assay"}, "[8]": {"molecular_target": "IL-18 variant SEQ ID NO: 62 (E6K, C38A, K53A, C127A) (human) (UniProt Q14116)", "sequence (Q14116 other isoform, or with tags, fused parts or gaps C38A K53A C127A C38A K53A C127A)": "as the sequence (Q14116 37-193) above, with E6K, C38A, K53A, C127A counted along it", "experiment": "cell-based or functional assay"}, "[9]": {"molecular_target": "IL-18 variant SEQ ID NO: 226 (V11I, C38A, S55R, C76A, C127A) (human) (UniProt Q14116)", "sequence (Q14116 37-193 V47I/C74A/S91R/C112A/C163A)": "as the sequence (Q14116 37-193) above, with V11I, C38A, S55R, C76A, C127A counted along it", "experiment": "cell-based or functional assay"}, "[10]": {"molecular_target": "IL-18 variant SEQ ID NO: 30 with 5 kDa PEG (E6K, V11I, C38A, K53A, T63A, C76A, C127A, C68-5kPEG) (human) (UniProt Q14116)", "sequence (Q14116 other isoform, or with tags, fused parts or gaps with the stated changes)": "as the sequence (Q14116 37-193) above, with E6K, V11I, C38A, K53A, T63A, C76A, C127A counted along it", "experiment": "cell-based or functional assay"}, "[11]": {"molecular_target": "IL-18 variant SEQ ID NO: 229 (V11I, C38A, C76A, S105K, C127A) (human) (UniProt Q14116)", "sequence (Q14116 37-193 V47I/C74A/C112A/S141K/C163A)": "as the sequence (Q14116 37-193) above, with V11I, C38A, C76A, S105K, C127A counted along it", "experiment": "cell-based or functional assay"}, "[12]": {"molecular_target": "IL-18 variant SEQ ID NO: 217 (V11I, C38A, N41A, K53A, C76A, C127A) (human) (UniProt Q14116)", "sequence (Q14116 37-193 V47I/C74A/N77A/K89A/C112A/C163A)": "as the sequence (Q14116 37-193) above, with V11I, C38A, N41A, K53A, C76A, C127A counted along it", "experiment": "cell-based or functional assay"}, "[13]": {"molecular_target": "Native IL-18 wild-type (SEQ ID NO: 1, native sequence) (human) (UniProt Q14116)", "experiment": "cell-based or functional assay"}, "[14]": {"molecular_target": "IL-18 variant SEQ ID NO: 30 with 30 kDa PEG (E6K, V11I, C38A, K53A, T63A, C76A, C127A, C68-30kPEG) (human) (UniProt Q14116)", "sequence (Q14116 other isoform, or with tags, fused parts or gaps with the stated changes)": "as the sequence (Q14116 37-193) above, with E6K, V11I, C38A, K53A, T63A, C76A, C127A counted along it", "experiment": "cell-based or functional assay"}, "[15]": {"molecular_target": "IL-18 variant SEQ ID NO: 30 with 10 kDa PEG (E6K, V11I, C38A, K53A, T63A, C76A, C127A, C68-10kPEG) (human) (UniProt Q14116)", "sequence (Q14116 other isoform, or with tags, fused parts or gaps with the stated changes)": "as the sequence (Q14116 37-193) above, with E6K, V11I, C38A, K53A, T63A, C76A, C127A counted along it", "experiment": "cell-based or functional assay"}, "[16]": {"molecular_target": "IL-18 variant SEQ ID NO: 4 with 30 kDa PEG (E6K, C38A, K53A, C68A, M86C-30kPEG) (human) (UniProt Q14116)", "sequence (Q14116 other isoform, or with tags, fused parts or gaps C38A K53A C68A M86C C38A K53A C68A M86C)": "as the sequence (Q14116 37-193) above, with E6K, C38A, K53A, C68A, M86C counted along it", "experiment": "cell-based or functional assay"}, "[17]": {"molecular_target": "IL-18 variant SEQ ID NO: 5 with 30 kDa PEG (E6K, V11I, C38A, K53A, T63A, C68A, C76A, C127A, M86C-30kPEG) (human) (UniProt Q14116)", "sequence (Q14116 other isoform, or with tags, fused parts or gaps with the stated changes)": "as the sequence (Q14116 37-193) above, with E6K, V11I, C38A, K53A, T63A, C68A, C76A, M86C, C127A counted along it", "experiment": "cell-based or functional assay"}, "[18]": {"molecular_target": "IL-18 variant SEQ ID NO: 221 (V11I, C38A, K53A, C76A, D110A, C127A) (human) (UniProt Q14116)", "sequence (Q14116 37-193 V47I/C74A/K89A/C112A/D146A/C163A)": "as the sequence (Q14116 37-193) above, with V11I, C38A, K53A, C76A, D110A, C127A counted along it", "experiment": "cell-based or functional assay"}, "[19]": {"molecular_target": "IL-18 variant SEQ ID NO: 211 (V11I, T34A, C38A, K53A, C76A, C127A) (human) (UniProt Q14116)", "sequence (Q14116 37-193 V47I/T70A/C74A/K89A/C112A/C163A)": "as the sequence (Q14116 37-193) above, with V11I, T34A, C38A, K53A, C76A, C127A counted along it", "experiment": "cell-based or functional assay"}, "[20]": {"molecular_target": "IL-18 variant SEQ ID NO: 225 (V11I, C38A, S55H, C76A, C127A) (human) (UniProt Q14116)", "sequence (Q14116 37-193 V47I/C74A/S91H/C112A/C163A)": "as the sequence (Q14116 37-193) above, with V11I, C38A, S55H, C76A, C127A counted along it", "experiment": "cell-based or functional assay"}, "[21]": {"molecular_target": "IL-18 variant SEQ ID NO: 215 (V11I, E31A, D37A, C38A, K53A, C76A, C127A) (human) (UniProt Q14116)", "sequence (Q14116 37-193 V47I/E67A/D73A/C74A/K89A/C112A/C163A)": "as the sequence (Q14116 37-193) above, with V11I, E31A, D37A, C38A, K53A, C76A, C127A counted along it", "experiment": "cell-based or functional assay"}, "[22]": {"molecular_target": "IL-18 variant SEQ ID NO: 223 (K8E, V11I, C38A, C76A, Q103R, C127A) (human) (UniProt Q14116)", "sequence (Q14116 other isoform, or with tags, fused parts or gaps V11I C38A C76A Q103R C127A V11I C38A C76A Q103R C127A)": "as the sequence (Q14116 37-193) above, with K8E, V11I, C38A, C76A, Q103R, C127A counted along it", "experiment": "cell-based or functional assay"}, "[23]": {"molecular_target": "IL-18 variant SEQ ID NO: 209 (F2A, V11I, C38A, K53A, C76A, C127A) (human) (UniProt Q14116)", "sequence (Q14116 other isoform, or with tags, fused parts or gaps V11I C38A K53A C76A C127A V11I C38A K53A C76A C127A)": "as the sequence (Q14116 37-193) above, with F2A, V11I, C38A, K53A, C76A, C127A counted along it", "experiment": "cell-based or functional assay"}, "[24]": {"molecular_target": "IL-18 variant SEQ ID NO: 30 with 20 kDa PEG (E6K, V11I, C38A, K53A, T63A, C76A, C127A, C68-20kPEG) (human) (UniProt Q14116)", "sequence (Q14116 other isoform, or with tags, fused parts or gaps with the stated changes)": "as the sequence (Q14116 37-193) above, with E6K, V11I, C38A, K53A, T63A, C76A, C127A counted along it", "experiment": "cell-based or functional assay"}, "[25]": {"molecular_target": "IL-18 variant SEQ ID NO: 61 (E6K, C38A, K53A, C76A) (human) (UniProt Q14116)", "sequence (Q14116 other isoform, or with tags, fused parts or gaps C38A K53A C76A C38A K53A C76A)": "as the sequence (Q14116 37-193) above, with E6K, C38A, K53A, C76A counted along it", "experiment": "cell-based or functional assay"}, "[26]": {"molecular_target": "IL-18 variant SEQ ID NO: 59 with 10 kDa PEG (E6K, C38A, K53A, C68-10kPEG) (human) (UniProt Q14116)", "sequence (Q14116 other isoform, or with tags, fused parts or gaps C38A K53A C38A K53A)": "as the sequence (Q14116 37-193) above, with E6K, C38A, K53A counted along it", "experiment": "cell-based or functional assay"}, "[27]": {"molecular_target": "IL-18 variant SEQ ID NO: 212 (V11I, D35A, C38A, K53A, C76A, C127A) (human) (UniProt Q14116)", "sequence (Q14116 37-193 V47I/D71A/C74A/K89A/C112A/C163A)": "as the sequence (Q14116 37-193) above, with V11I, D35A, C38A, K53A, C76A, C127A counted along it", "experiment": "cell-based or functional assay"}, "[28]": {"molecular_target": "IL-18 variant SEQ ID NO: 227 (V11I, C38A, S55T, C76A, C127A) (human) (UniProt Q14116)", "sequence (Q14116 37-193 V47I/C74A/S91T/C112A/C163A)": "as the sequence (Q14116 37-193) above, with V11I, C38A, S55T, C76A, C127A counted along it", "experiment": "cell-based or functional assay"}, "[29]": {"molecular_target": "IL-18 variant SEQ ID NO: 60 with 30 kDa PEG (E6K, C38Q, K53A, C68-30kPEG) (human) (UniProt Q14116)", "sequence (Q14116 other isoform, or with tags, fused parts or gaps C38Q K53A C38Q K53A)": "as the sequence (Q14116 37-193) above, with E6K, C38Q, K53A counted along it", "experiment": "cell-based or functional assay"}}}
{"substance": "Fc fused human IL-18BP isoform a (IL-18BPa) (from UniProt O95998 31-194) (Fc fusion)", "values": [{"measurement": "IC50 (read off the curve); IFNγ production in the NK-92 assay (IFNg, ng/mL)", "setting": "[1]", "result": 1, "unit": "nM"}, {"measurement": "IC50 of IL-18BPa-Fc on IFNγ secretion, NK-92", "setting": "[2]", "result": 7.52, "unit": "nM"}, {"measurement": "IC50 of IL-18BPa-Fc on IFNγ secretion, NK-92", "setting": "[3]", "result": 532, "unit": "nM"}, {"measurement": "IC50 of IL-18BPa-Fc on IFNγ secretion, NK-92", "setting": "[4]", "result": 0.809, "unit": "nM"}, {"measurement": "IC50 of IL-18BPa-Fc on IFNγ secretion, NK-92", "setting": "[5]", "result": 358, "unit": "nM"}, {"measurement": "IC50 of IL-18BPa-Fc on IFNγ secretion, NK-92", "setting": "[6]", "result": 146, "unit": "nM"}, {"measurement": "IC50 of IL-18BPa-Fc on IFNγ secretion, NK-92", "setting": "[7]", "result": 7.85, "unit": "nM"}, {"measurement": "IC50 of IL-18BPa-Fc on IFNγ secretion, NK-92", "setting": "[8]", "result": 284, "unit": "nM"}, {"measurement": "IC50 of IL-18BPa-Fc on IFNγ secretion, NK-92", "setting": "[9]", "result": 0.885, "unit": "nM"}, {"measurement": "IC50 of IL-18BPa-Fc on IFNγ secretion, NK-92", "setting": "[10]", "result": 105, "unit": "nM"}, {"measurement": "IC50 of IL-18BPa-Fc on IFNγ secretion, NK-92", "setting": "[11]", "result": 0.176, "unit": "nM"}, {"measurement": "IC50 of IL-18BPa-Fc on IFNγ secretion, NK-92", "setting": "[12]", "result": 0.681, "unit": "nM"}, {"measurement": "IC50 of IL-18BPa-Fc on IFNγ secretion, NK-92", "setting": "[13]", "result": 0.781, "unit": "nM"}, {"measurement": "IC50 of IL-18BPa-Fc on IFNγ secretion, NK-92", "setting": "[14]", "result": 34.3, "unit": "nM"}, {"measurement": "IC50 of IL-18BPa-Fc on IFNγ secretion, NK-92", "setting": "[15]", "result": 67.1, "unit": "nM"}, {"measurement": "IC50 of IL-18BPa-Fc on IFNγ secretion, NK-92", "setting": "[16]", "result": 126, "unit": "nM"}, {"measurement": "IC50 of IL-18BPa-Fc on IFNγ secretion, NK-92", "setting": "[17]", "result": 32.5, "unit": "nM"}, {"measurement": "IC50 of IL-18BPa-Fc on IFNγ secretion, NK-92", "setting": "[18]", "result": 3.18, "unit": "nM"}, {"measurement": "IC50 of IL-18BPa-Fc on IFNγ secretion, NK-92", "setting": "[19]", "result": 21.3, "unit": "nM"}, {"measurement": "IC50 of IL-18BPa-Fc on IFNγ secretion, NK-92", "setting": "[20]", "result": 0.456, "unit": "nM"}, {"measurement": "IC50 of IL-18BPa-Fc on IFNγ secretion, NK-92", "setting": "[21]", "result": 3.71, "unit": "nM"}, {"measurement": "IC50 of IL-18BPa-Fc on IFNγ secretion, NK-92", "setting": "[22]", "result": 7.29, "unit": "nM"}, {"measurement": "IC50 of IL-18BPa-Fc on IFNγ secretion, NK-92", "setting": "[23]", "result": 5.05, "unit": "nM"}, {"measurement": "IC50 of IL-18BPa-Fc on IFNγ secretion, NK-92", "setting": "[24]", "result": 44.2, "unit": "nM"}, {"measurement": "IC50 of IL-18BPa-Fc on IFNγ secretion, NK-92", "setting": "[25]", "result": 779, "unit": "nM"}, {"measurement": "IC50 of IL-18BPa-Fc on IFNγ secretion, NK-92", "setting": "[26]", "result": 236, "unit": "nM"}, {"measurement": "IC50 of IL-18BPa-Fc on IFNγ secretion, NK-92", "setting": "[27]", "result": 3.62, "unit": "nM"}, {"measurement": "IC50 of IL-18BPa-Fc on IFNγ secretion, NK-92", "setting": "[28]", "result": 0.44, "unit": "nM"}, {"measurement": "IC50 of IL-18BPa-Fc on IFNγ secretion, NK-92", "setting": "[29]", "result": 28.1, "unit": "nM"}]}
